{"source": "the DeepSol protein solubility set"}
{"test": "soluble on expression in E. coli; label from the status in PepcDB or PDB records"}
{"sequence": "IVHREHHESREEVSVSSGKNNPFYFNSDRWFRTLYRNEWGHIRVLQRFDQRSKQMQNLENYRVVEFKSKPNTLLLPHHADADFLLVVLNGTAVLTLVNPDSRDSYILEQGHAQKIPAGTTFFLVNPDDNENLRIIKLAIPVNNPHRFQDFFLSSTEAQQSYLRGFSKNILEASFDSDFKEINRVLFGEERQQQQGEESREEGVIVELKREQIQELMKHAKSSSRKELSSQDEPFNLRNSKPIYSNKFGRWYEMTPEKNPQLKDLDVFISSVDMKEGALLLPHYSSKAIVIMVINEGEAKIELVGLSDQQQQKQQEESLEVQRYRAELSEDDVFVIPAAYPVAINATSNLNFFAFGINAENNRRNFLAGGKDNVMSEIPTEVLEVSFPASGKKVEKLIKKQSESHFVDAQPEQQQREEGHKGRKGSLSSILGSLY", "soluble on expression in E. coli": "soluble"}
{"sequence": "KDIYASMETARREGKSFNTWKKGLVDEMERKGWVAGRDKKLGRGLDGTLLADPKTGEYFGTPRRLNTIYRVNMQAAYSGARYQRMMDNVDNRPYWKYSAVSDSRTRPAHLALNGRVYRYDAPFWATFYPPNGFNCRCTVI", "soluble on expression in E. coli": "not soluble"}
{"sequence": "KESILAVLLYLFEYYFSENADLVRDRDSLQNSLIQVGFSPAEINKAFEWLDALAANRPTLTNPRVNGPVRVLHGPELDKLDVESRGFLLFLEQQGILNTEQRELVLDRAMALDQEELDLDDMKWVVLMVLFNQPGAEAAYAWMETQMFGNEPEQLH", "soluble on expression in E. coli": "not soluble"}
{"sequence": "KGKKVILFAPTFRGSGHGTAHYPFFKIDFERLARYCEKNNAVVLFKMHPFVKNRLNIADKHKQYFVDVSDFREVNDILFITDLLISDYSSLIYEYAVFKKPMIFYAFDLEDYITTRDFYEPYESFVPGKIVQSFDALMDALDNEDYEGEKVIPFLDKHFKYQDGRSSERLVRNLFG", "soluble on expression in E. coli": "not soluble"}
{"sequence": "KIGFKLGGGFEYAFDNTWSLQPSLFLSTKGAKKDGNSINAMYLELPVMAAARFNVADNTNIVVNAGPYLACGIAGKTKIDLGNDTERKYDTFGDDALKRFDAGLGVGVALELGKVIVGLDGQFGLVDVEKIGNPKNTNFSIVLGYKF", "soluble on expression in E. coli": "not soluble"}
{"sequence": "KILEREFSMNEQLFKDLFDRAVDGIVLFDKDGGFIDANLSFCKSFEINHNELSHLSLYEFIDSGSRKDFDNIWKALNRKGKAKGELPVKLRSGVQKLFEFTITSNIISGFYMSIMRDIT", "soluble on expression in E. coli": "not soluble"}
{"sequence": "KKIKVYIELDLGGPITVGFPTHISDGISLLGSTNIFDDISEAYFTPKDEEILKRDPDIIIYEPKRLTDYEKERFYSILRKRDLFQLLNKRLIFTKGDYLAHMGPSFITDVLIWLKSVL", "soluble on expression in E. coli": "not soluble"}
{"sequence": "KLEEEPYLKGTVNTVIYHNDTNLYTVLKVKVTETSEAIEDKAVSVTGYFPALQEEETYTFYGKIVTHPKFGLQFQAEHFKKEIPTTKEGIIQYLSSDLFEGIGKKTAEEIVKKLGDSAINKILADASVLYDVPRLSKKKADTLAGALQRHQGLEQIMISLNQFGFGPQLSMKIYQAYESETLEKIQENPYQLVKDVEGIGFGKADELGSRMGLSGNHPERVKAAILYTLETTCLSEGHTYIETEQLIIDTQSLLNQSAREGQRITEMDAANAIIALGENKDIVIEDGRCYFPSLFYAEQNVAKRVKHIASQTEYENQFPESEFLLALGELEERMDVQYAPSQKEAIQKALSSPMLLLTGGPGTGKTTVIRGIVELYGELHGVSLDPSAYKKDEAFPIVLAAPTGRAAKRMSESTGLPAVTIHRLLGWNGAEGFTHTEDQPIEGKLLIIDEASMLDIWLANHLFKAIPDHIQIIIVGDEDQLPSVGPGQVLRDLLASQVIPTVRLTDIYRQAEGSSIVELAHQMKNGLLPNNLTAPTKDRSFIRCGGSQIKEVVEKVVANALKKGYTAKDIQVLAPMYRGKAGINELNVMLQDILNPPKEKRRELKFGDVVYRTGDKILQLVNQPENNVFNGDIGEITSIFYAKENTEKEDMAVVSFDGNEMTFTKKDFNQFTHAYCCSIHKSQGSEFPIVVLPVVKGYYRMLRRNLLYTAITRAKKFLILCGEEEALEWGVKNNDATVRQTSLKNRLSVQVEEMDAELEALQKELPFSVHDANIGMEGITPFDFM", "soluble on expression in E. coli": "not soluble"}
{"sequence": "KLFEHTVLYDSGDAFFELKGNASMKLSPKAAIEVCNEAAKKGLWILGIDGGHWLNPGFRIDSSASWTYDMPEEYKSKIPENNRLAIENIKDDIENGYTAFIITLKM", "soluble on expression in E. coli": "soluble"}
{"sequence": "KNFPVLHLHREDFHDIRGTISLHLKTGFPMGFQMSVMCIGQLSMQTVVNSLGTAAVAGYTAASKADQLSVLVNNAMMTAISNYVAQNFGAGKRERIRQGVR", "soluble on expression in E. coli": "not soluble"}
{"sequence": "KNTDLVAEDSICFPIDEHTYYASKSIFQFEENGHEYLSFLDAEYSQKINIYDIKNQKLIKTILLQKEGPNGMNVLSGCHPLNLNHFIITSWNGTFSLVNDKGEIEKKFDFWEKGVNFQEFDHISFSSYSYKPAIIKDSILYFSQSFLKHPRKKSDWNKIPMFAFANLNTGKTGWSELRYPLIFNKDEDFKNVKLYDPEICYTYTGKDVVISLGQYDSIMVSSDFKHKISYNAKSRYLAHAYPHLQDGQIDLFKNIQIQGKLPHYSHLMYDKYRKVFYRFALMPDDNIKPFSNNPHQSFSIIILNKDYEIIGETKFPGNTYTHHLCFVGKKGLYISENNENNPQFDENKLVFRCFTLQDRKK", "soluble on expression in E. coli": "soluble"}
{"sequence": "KPEWMMIHRILNHSVDKKGHVHYLIKWRDLPYDQASWESEDVEIQDYDLFKQSYWNH", "soluble on expression in E. coli": "soluble"}
{"sequence": "KPGFQLGVTVDYEIGKHWMLMSGLSWLQNRSTMKMMDHMVTYFPKTEIKMNNLILPLKMGYNIRVSDKLSLIPSVGVYASYGFGAGNCSLDVIHQEGDNITTEPAKWKPLDGFSYKAGEPNNSGNLQAFRRWDYGGIVGMKAVIADHYTISFDYRVGIKKIQAQNGLRNSTFQFSVGYRF", "soluble on expression in E. coli": "not soluble"}
{"sequence": "KQSKLTLMSESLRNDGRIWVPKKLEDAKALQAGTKKPTDIPDADRDFYLERRYPAFGNLVPRDVASRAAKERCDAGFGVNNTGLAVFLDFKYAIDRLGEDVVRARYGNLFDMYEEITDENPYKTPMMIFPA", "soluble on expression in E. coli": "soluble"}
{"sequence": "KSKKAVWHKLLSKQRRRAVVACFRMTPLYN", "soluble on expression in E. coli": "soluble"}
{"sequence": "KSKLGSKLNLIRNYKNLGITLNYKNGFKNCKGEYIAVLEGDDYWIQKSKLKRQVSFLESNRDCSLVFNKIVLDYGDEKINNLIYPFNDIRKKFSARELVRSNFIQNFSCCMYRKSSIRKLRESIYDMVVYDWMFNMAVAQFGLIGYIPNYMTSHRILKSGLWSGKSKMENLQMISKCIDQYDSFFKYKYRKEFSQNKQEVLQALRRLVMVNENG", "soluble on expression in E. coli": "not soluble"}
{"sequence": "KTKALIIEDKTLTDDQRKEQLLGVDTEYAKGIENIDAAKDAAGVDKAYSDGVRDILAQYKEGQNLNDRRNAAKEFL", "soluble on expression in E. coli": "not soluble"}
{"sequence": "KTNTEQFCSDCHMNDVVPEYRASAHYSNRSGVKAVCADCHVPHEFAPKMLRKLQASTEVYAHLTGKVDNKEKFEAHRLAMAEREWARMKANNSQECRNCHNFEDMDFTQQKTVAQQMHSRAETENKTCIDCHKGIAHNLPHMEKVQKSFIPDDMIKKTEKATEIK", "soluble on expression in E. coli": "not soluble"}
{"sequence": "KVYSLRLNQKRNEKPSIFANENVRKALAYALDKKSLVDNILADGSKEIYGYIPEKFVYNPETNEDFRQEAGALVKTDAKKAKEYLDKAKAELNGDVAIELLSRDGDSDRKVAEFIQGQLQETLPGLTINVKTVPLNNAIELMRKGDYELSVGMWGPDYQDPMTFLESSVSGNRMNYSSPTFDQLIEEATTKYANEPETRWQTLIKAEKVLVEEDAALIPLYQEA", "soluble on expression in E. coli": "not soluble"}
{"sequence": "KYHHLTLTQRAGSAVPTSNKVLDVKGQYLESGLSAPLIAEMRKHLKAGNQVMLFLNRRGFSPALMCHECGWIAECKRCDAYYTFHQYSNEIRCHHCGSQQPVIHQCQGC", "soluble on expression in E. coli": "not soluble"}
{"sequence": "LADSIVPRQQWAAIEPRRQIKMNGRADEIFLWQTGPDTCSLMGLTADKCQGCLQDSSCTEQIVKALQDADFKEGNDDIKYNFLIDQDGVIYEGRGWGVVGQHTKGRDSHSIGVAVIGDFGKKEPSQALQDALSKLIICGQAAEELSSGARLRTTPAMSGQAFYDMLDRCDGLCLDD", "soluble on expression in E. coli": "soluble"}
{"sequence": "LAEGKEIPCFALTSPEAGSDAGSIPDYGVVTKGMWEGEEVVGMRITWNKRYITLAPVATVLGLAFKLQDPDGLLGDKKDLGITCALIPTDLDGVKIGRRHFPLNVPFQNGPTQGNDLFVPLDYIIGG", "soluble on expression in E. coli": "not soluble"}
{"sequence": "LAFVGLTIAIVVTETALLFRRYTALKPADLTRLINSENALVVDLSPSSDFEKGHIAGSRSVVESKFDPESNKLLLSAKQSPLVVVCRNGHISAAAAKRLKNAGFEKVYWLDGGIATWKMAEMPLIK", "soluble on expression in E. coli": "not soluble"}
{"sequence": "LALMSAAKLPKSFVWGYATAAYQIEGSPDKDGREPSIWDTFCKAPGKIADGSSGDVATDSYNRWREDVQLLKSYGVKAYRFSLSWSRIIPKGGRSDPVNGAGIKHYRTLIEELVKEGITPFVTLYHWDLPQALDDRYGGWLNKEEAIQDFTNYAKLCFESFGDLVQNWITFNEPWVISVMGYGNGIFAPGHVSNTEPWIVSHHIILAHAHAVKLYRDEFKEKQGGQIGITLDSHWLIPYDDTDASKEATLRAMEFKLGRFANPIYKGEYPPRIKKILGDRLPEFTPEEIELVKGSSDFFGLNTYTTHLVQDGGSDELAGFVKTGHTRADGTQLGTQSDMGWLQTYGPGFRWLLNYLWKAYDKPVYVTENGFPVKGENDLPVEQAVDDTDRQAYYRDYTEALLQAVTEDGADVRGYFGWSLLDNFEWAEGYKVRFGVTHVDYETQKRTPKKSAEFLSRWFKEHIEE", "soluble on expression in E. coli": "soluble"}
{"sequence": "LDNPFYYLENFRQVLGWIAQRYDDLLDASERRFITEFAGLPMPAQGLLVRMVMRKGVMFRASKLSYAEIGDPHQAVLPLLQQDWVDTSPPLGLSELFQLLRRDELSQCFKAHAVKGPERKHEWLERLQPLYETAQPLEQWHPLLPDAVFGLKIMPLCDRLRLLYFGNLYQEWSEFVLADLGIYRYEKVEFSADSRGINQRDDINVCLQLHACREALETCVELHALAERAIAIECSNPWLNMRRAKLLYRIGQHAERLQDWPLALSVYRQSNYPGARSRQIRVLERNAEYTEAMALVEQAGLAPESDAEVQHLSRGTPRLQRKLGLTAARRPAARVVSRLDVQVTPSPGTSVERLIRLHLEEQQGGEVHYVENTLINSLFGLLCWRAIFAPLPGAFFHPFHSAPSDLYSPDFYQRRAALFDECLLQLESNDYRVTIREHFQSKSGLQSPFVFWGALTPQLLEQALHCLPADHLRLWFRRLLQDIKANRTGMPDLIQFFPEQRGYRMIEVKGPGDRLQDNQLRWLDFCAEHGMPVEVCYVQWA", "soluble on expression in E. coli": "not soluble"}
{"sequence": "LEPRHAMLLRCRLPGGVITTKQWQAIDKFAGENTIYGSIRLTNRQTFQFHGILKKNVKPVHQMLHSVGLDALATANDMNRNVLCTSNPYESQLHAEAYEWAKKISEHLLPRTRAYAEIWLDQEKVATTDEEPILGQTYLPRKFKTTVVIPPQNDIDLHANDMNFVAIAENGKLVGFNLLVGGGLSIEHGNKKTYARTASEFGYLPLEHTLAVAEAVVTTQRDWGNRTDRKNAKTKYTLERVGVETFKAEVERRAGIKFEPIRPYEFTGRGDRIGWVKGIDDNWHLTLFIENGRILDYPARPLKTGLLEIAKIHKGDFRITANQNLIIAGVPESEKAKIEKIAKESGLMNAVTPQRENSMACVSFPTCPLAMAEAERFLPSFIDNIDNLMAKHGVSDEHIVMRVTGCPNGCGRAMLAEVGLVGKAPGRYNLHLGGNRIGTRIPRMYKENITEPEILASLDELIGRWAKEREAGEGFGDFTVRAGIIRPVLDPARDLWD", "soluble on expression in E. coli": "soluble"}
{"sequence": "LEQARTMSVDEMAANPEINRLMMARIEAAQDSLAAYEKVKYITLLAEPFTLEKGELTETMKLKRRVINEHYAEAIEKMYL", "soluble on expression in E. coli": "not soluble"}
{"sequence": "LFDLGHPLLNRIADSFVKAAGVGALQAVSREAYFTVVDGAGFDSNNVGPPSEITGNKKHRFPNLRGESSKSLDALVKNTGKESLQWGLAAGLYSGITYGMTEVRGGAHDWRNSAVAGALTGAAMAMTTSERTSHEQVVQSALTGAAISTAANLLSSVF", "soluble on expression in E. coli": "not soluble"}
